The nature of this data set: label from the status in PepcDB records.
As to “MIYYGTMFDHKVRFSIVRMREVVEEARNRHALSYLATVVLGRALIGAALVTPWLAEKERWTLDIEGNGPIRRVVAQSTSEFTVRGYVANPKVELPLNEKGKFDVAGAIGQGVLRVVRDLGLKTPFVSQVPLVSGEIAEDLAYYFAVSEQIPSAFSIGVLVDSDGVKIAGGFAVQIIDRTLEQEKVEMIEKNIKNLPSISKLFQEAEPLDVLERIFGEKVGFVETAEIKYKCDCNREKAKNALLVLDKKELEDMRKEGKGEVVCKWCNTRYVFSEEELEELLKFKVDDSGS”, the protein production entry is “not failed”.
The same measure for “MKADKWNHVETARYFRDLQENEVRTMHYLGLAYVVLSRRPNLQLKVPLSTQNYEDGAIVGAGERGGYALQLLFTCAANYPLARPLVEIVEKRNVSDAFEQVLRKEIDLILEEHLGLQMIVPVVTRLQITLNTEMKR”: “not failed”; for “MKAELIAVGTEILTGQIVNTNAQFLSEKMAELGIDVYFQTAVGDNEERLLSVITTASQRSNLVILCGGLGPTKDDLTKQTLAKYLRKDLVYDEQACQKLDDFFAKRKPSSRTPNNERQAQVIEGSIPLPNKTGLAVGGFITVDGISYVVLPGPPSELKPMVNEELVPLLSKQYSTLYSKVLRFFGIGESQLVTVLSDFIENQTDPTIAPYAKTGEVTLRLSTKTE”: “failed”.
The same measure for “MKAGIHPDYKKVVFMDTNTGFKFLSGSTKGSNETVEWEDGNTYPLLKVEISSDSHPFYTGRQKFATADGRVDRFNKKYGLK”: “failed”; for “MKAIILAGGHSVRFGKPKAFAEVNGETFYSRVIKTLESTNMFNEIIISTNAQLATQFKYPNVVIDDENHNDKGPLAGIYTIMKQHPEEELFFVVSVDTPMITGKAVSTLYQFLVSHLIENHLDVAAFKEDGRFIPTIAFYSPNALGAITKALHSDNYSFKNIYHELSTDYLDVRDVDAPSYWYKNINYQHDLDALIQKLLEHHHHHH”: “not failed”; for “MKAKHLTQLLKASFLSCSMIATTLSMAQLPPAPQEKYGDGRVSEFYTWKSAIPAQPGKLLRTEAVHNPYIRLANDSQAIRILYSSTSGKDSKTPIVVSGSIHLPKGNPPKEGWPVVLWAHGTVGLADACAPSWSGRSYRDVQYLNRWLNEGFAVVATDYEGLGVAGPHLLINNPMLAYSILDSGRAALKTKLPLANKFVIVGQSQGGAGAVAASSYSATYAPDLNIKGSIGTGVIYKDPEATPEKNQLKLNPYEVSPSLAYGIYSFLVTQSLYPEIKTEEIFTPEAAPLVEQARNACLTSFMGDIQTAGLSPAQAYKPNPPTSYKKLQEKESNDYGYYPTLKISHPLFIGTGANDRTPDARSQMKLVADACKAGTVVEGHLYHGLGHSETVNASLKDSIPFAKKVIAGEKIQAICKPDLQ”: “failed”.
The value for “MKALLPGLYLLPVPIPYPLKTVNLYLLQGAGEVALVDTALGTRAARGALELHLAELGLCFQDVKTILLTHHHPDHYGLSGFFEGLGARVFLHEEEFARGHRFWREPEAFAEASWRLFLDHGTPEGALQGIRETVEKTRERVHPPQNPLPLRDGEALEVAGKRLRVLWTPGHADGHAAFYLEEEGVLLAGDALLEKVSPNVGLWAYTRENPLKDFLRSLDRLADLGARVAYAGHFGPIADVRQRAEELKAHHQARLEALLALLDGPKTAWELSLHLFPQELDPAGRRFAFAETLAHLEYLREEGAVGRGGPPYRYFRR” was “not failed”.
Consider “MKAPEGIACGKRQLVVSDTGGGRLLSYSIENGSVRGGTEIKAEQVPYPTKVQLTSKGEILVIDGKLRRIAHFSPEGSFAGYLDLKGVPAPATIAPRGIRVDDKDNIHILDIFGARVIVTDAAGTFQSQMPFPEGYRFISDLAVSASGTTLLLDSVASRVYAAARGETAFKPLTDGMKEYLQFPTSIATDKQGKIFILDQTGNAVVTLGQDGSFQGRQLNIGWKNSFLHYPSQLCISEENDIDVVIADRNNNRIQVFRVVRLEHHHHHH”, for which the protein production entry is reported as “failed”.
As to “MKAPLVSIIIPVWNLWELTCACLDSIRAHTPGNAVEVIVVDNGSDDTTATALAPTGEGLFGARFRRIRLETNRGFAVACNLGAAKAQGTYLLLLNNDTVLSPGWLPPLLREFDDEPRTGAAGPLLVYPDSGRVQHCGIAFAPTLQTEHLYANFPATHPAVRARRTLQAITGAAMLLPTALFRQCGGFHEGYKNGCEDLELCCRIREQGLRLAVVPESLVAHHESRTPGRKEHDAANATLLNRRCSGCFGPDLHRHALRDGFAIALTPWLDTYLTLPPGREAALTREHITDFDPGRCWETLQGEPLWHGGYEMLCSILDEAGRHAESAGVRLLQAGFFPTLPGFRQLARSAALSGNDELARQAAEKMQHIGGILEDPEPLVTRARGLVRWARRAGEPAVEALYTGWLTDIGLSADDLEHHHHHH”, the protein production entry is given as “not failed”.
The same measure for “MKAPRLIGAEIFRHSSYGRWHPLRVPRVSTVMDLSRAMGWLPPAQFITAPRAKPKALLAWHTADYIAALQRVEATQEATPHDTQRHDIGTVTNPVYPEIFRRPATAAGGSLLAGELLREGGIIYNPPGGTHHGMPDRANGFCYLNDPVLAMLSLRRNGVQRIAYVDIDAHHCDGVAAGFHGDPQCLMISVHEEGLWPRTGLLEDTAGGAGLNLPVPRGLNDTEMAYIRDRLILPQVEAFRPDAVVLLCGADGVEEDPLAHLCLSNNAHWAVTKALMGIAPRMLVLGGGGYNPWSVGRLWTGVWATLNGHDIPDRLPPEAQAVLRALRFEGNRRGKNPPEHWFTTLRDAPRPGPVRSDITDRVAELSRKAARLRLDH”: “failed”; for “MKAVIVYASVHHGNTKKIAEAMASVISADVIDVTRKIKPDLSGYDVIGFASGVYFHTFHERIKKCIEENLFSKGQKVFLVATCGLGYRDYTKGIKDILAKKHVSFIGNFQCRGWDTYGIFGKIGGIAKKHPNDRDLKEAQQFVLKTVCEKTIDDVALLG”: “failed”; for “MKAVRRQISRFSAHRWWSIVLKEFLQLRRDRVTFGMMIGIPIIQLLLFGFAINSDPRHMPTAVIVAEHSDFSRTFIAALDNTTYFKVVRTMPDEASGREALMRGDVQFVVSIPADFSRRLLHGDRPSILVEADATDPSATGQAIAALAQLPATVARIDLKGALAPLAGGQPAFDVNVHRLYNPEGITQYNIVPGLMGTILTMTMVMMTGLAMTRERERGTMENLLATPVQPLEVISGKIIPYIFIGLIQATIILLAAHFVFGVPFVGSPVAVYLAALLFIAANLTVGITLSSLAANQLQALQLTFFYFLPNILLSGFMFPFAGMPTWAQWIGNVLPMTYFNRMIRSIMLKGSGWIELWPNVWPVALFTVIVLTIAVRFYKRTLD”: “failed”.
Consider “MKAVVMAGGEGTRLRPMTANQPKPLLPVVNRPIMEHVLRLLKRHGFEDTVVTVQFLATLIRNYFGDGEELGMSLRYVAEEVPLGTAGSVKNAEEHLRGEPFIVISGDALTDIDLTDMVRFHRENGALVTIGLKRVANPLEFGIIIVDDNGRIQRFLEKPTWGQVFSDTVNTGIYIMEPEVLDHVAPGENVDWSGDVFPKLLKAGAPLYGYIADGYWEDVGTHESYLRAQADVLSGKVDVEIDGFEVSPGIWVAEGAEVDPEAVLKGPLYIGDYAKVEPGAELREFTVLGSNVVVRSEAFLHRAVVHDNVYVGTRANLRGCVVGKNTDIMAGVRIEEGTVVGEECVLESEAYLANNIKVYPFKTIEAGAVVNTNVIWESKGQRSLFGPRGVSGLINVEITPELAVRLASAYATTLKKGAVVTTARDASRAARTLKRAVISALTAAAINVQDLEATPLPLARFHTSQPGLSGGIALRTTPGDPQSVDIVFLDSSGADLSPAAQRKLERVFSRQEYRRAFPGEIAELSFPSRSVEAYTRELLQSIDLSGVAEANLKVVVDCAGGTGSLILPALLSQIDADVLTVNNRLDEASPTDTPAKRTRDLQRLGELVASARADFGVRFDPVGERIQLVDGSGTLVDDERALLVVLDLVAAERQGGRVALPVTTTRVAEQVANRHGVDVQWTPTSLDALTKAALADDIIFAADGRGGFILPEFSRTCDGIAAFVRLIGLVARTKMSLSQIDQRIPQAHLLRRSVPTPWAVKGSVMREVVEAAQGREIDTTDGVRVIEPDGSWALVLPDTAEAVTHLWAEGPDDETAQRLLEEWSAVVERAEG”, for which the protein production entry is “failed”.
The same measure for “MKAYQNILVAIDGSGADDALIEQVSALAAPLGSRVHLLHVVHSHTIDQERALREQAGEFLERYRAAMQQQGIEAEVLIRSGEPDREILKEIEERRYDLLAMAAHGHRLFSRLLFGSVSRALRNKIDIPLLLVRGEAR”: “failed”.
As to “MKDEVQLKKYLPSLIFAIILPVIAYLFLKMLGNSDTLALGIATAFPVVHMLWSLIRKKELNPVSLVAIIGFLISLLAVYLTHGNNLAFKLWHPILTAAIGTIFLLSVLLNRPLLELASEGENHRKMLIMTLFMGLVFIFHALSVILLAFFVETTAFVLLSKVIDFSAVGVLVLGLAFLRKKLN”, the protein production entry was “failed”.
The value for “MKDFFPLQQGGLVLEWVNTETKLRQLWAFRHRIFREQLQWVPLCEDGFDRDAYDDFSDNLVLCRDGEVVGAIRLTTGEHPFMLEEEFSRLLAPGERIGKGAEYSEITRLAVDREALGARESIMAARLLYLGAWLWSQVQGVRWMYFVVEPVFYRRLVMMGFPIVPVGIPRPLDGGVMSMTGLLDWRQAKTELIRSLTRGVSSPSACQALWHEYDYSH” was “failed”; that for “MKDFIRYTKKRNLSLNTIRTYESVLKHYEPVLDSWIKIRNKIINSNFKPRTIHLHKNVLLSFFEFKKLKRYLQNLKLLKLPQIEMKYFDVISKNNLYKKTDILDDDSLEIKKYKTIIRFLFETGIRAHELFFLESINNRLYVLGKGNKKRQIFFVKQTFEQLQKFYENLKGFETTKTLRLYIKKIIGKNFTPHSLRRSFATFMLIKGANPKTVMLQMGHANIQTTFSYLNLNEQTNRRIYNKIMYQNDAE” was “failed”; that for “MKDLKDSLKILYQFKTDYLKVTLLLTILQAFVIGPFIYYFFFFILRVIGVPGITDANLGEVFSSPVAVIMLLILALLILLFVYYELGFFIMMAIYQLRGESYTVFKIIQRLNVKAKYFLSYQAIYFLLYFFLLLPIAGLSLPITITENLYLPHFITDELMKTTTGTWLYVIAIAIIFYISARLVFALPYFIEDKSLKISGAIRKSWKFSQKHLFFMLLKWVLIIVVIGFLVSIIATIIMLPLLLVEKITPGIAVVIAGITLTILQVIGFFAAGIFQGIIAQLLVKNAFAIEGQHAPVARNQFPHKKRFIIVAIIVFIIFSGFNIFTVNATLYEPNTKIIAHRGDTMNAVENTVEAIESAAKSGADYSEIDIQETKDHQFVVFHDMTLRRLAGSSKRVADMTLKELQQTKVKSGDYSSHIASFDEIIKTAKKNKIDLLVEVKLHGGESSDMVERLVTLLKKEKVTDKYLVQSLNQPVIEEIEKADPSLKTGIILALNIGNLPKTSADFIVLEDFSINKRLLTQAKQNDKMVFVWTVNKEKLMQMYLRKNVDGIITNYPKKAIELRESFNENDSLRSRIENRLGF” was “failed”.
The same measure for “MKDLLKWKFVETLDFLFDMDKYGRQMLFLQERGRMKLMEGFAVEFRGDGWDNDLASYCGKIVECSWDKEKKVWVSLRIRVDKSKPNGIGTGRSVIKCIEDDLTKEVLLKEIKEIILLP”: “not failed”; for “MKDLYQKFIYLIPSIIIFLITLSVTLKYSWPIGWDIFYHIHLSKVYMANGLTFFDPIYNAPGTIINYPPVFHLVILVLGYVLRMDLFDVARLMQPFLAALVALSVTVVASRLYEDKYVGIFAGLILFSGSIAMRLGSSLPENMALIFLPLSIFFFYEFFKDDKIIASFISGCLTGLVALIHPAATFCLVFAITFITAGLVITEFYFERDTGVIKRALKGYAILIGTAGLIASVWWLPAFYFKSLGHGGVATSLSVSRSLSILKYPDALGYFVLVLAVAGIIPAIRRFELRDRLILLWIISMFILSKSYYFGINVITYRVLIYIMIPLTILASSGLISVVEAIKNKNKDIARILLIALFIFAVFQAFNNLSSSKVADYGAMTAYGRINIAPPTDSEFELAKWFNSQNEDGKISLSNYFTGGFVMAYTNRPVDSLLYEKSEIPSRDELTEREISYLVFDKRLKASGDFKFNASSSFLFYNPNRINISDLEYPYLQKIYENQDFVVYRVL”: “failed”.

These data come from a protein production outcome set (Wang et al. 2014).
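Also: failed if final PepcDB status was selected cloned or expressed and not failed if soluble or beyond.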
